# What was measured:
# CRL substrates = conditions: ref [31]–[32]; cited from earlier work
# tumor growth = conditions: ref [31]–[32]; cited from earlier work
# NAE = target: T1, NAE (Homo sapiens, UniProt Q13564+Q8TBC4); conditions: covalent adduct with the C-terminus of Nedd8; ref [16], [30]; cited from earlier work
# T1 sequence (Q8TBC4 1-463): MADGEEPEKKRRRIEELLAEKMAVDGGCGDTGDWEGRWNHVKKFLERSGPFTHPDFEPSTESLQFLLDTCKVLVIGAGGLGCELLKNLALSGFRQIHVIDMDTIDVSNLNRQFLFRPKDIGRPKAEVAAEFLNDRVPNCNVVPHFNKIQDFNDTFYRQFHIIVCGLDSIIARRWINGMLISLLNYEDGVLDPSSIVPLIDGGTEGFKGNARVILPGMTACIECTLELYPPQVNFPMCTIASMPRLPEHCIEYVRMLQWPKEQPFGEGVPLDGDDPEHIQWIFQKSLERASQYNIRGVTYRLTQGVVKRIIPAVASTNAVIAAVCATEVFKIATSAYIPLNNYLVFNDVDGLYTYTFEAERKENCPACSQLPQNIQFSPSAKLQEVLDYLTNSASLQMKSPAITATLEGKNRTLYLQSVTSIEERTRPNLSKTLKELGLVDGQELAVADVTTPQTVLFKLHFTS
# T1 sequence (Q13564 1-534): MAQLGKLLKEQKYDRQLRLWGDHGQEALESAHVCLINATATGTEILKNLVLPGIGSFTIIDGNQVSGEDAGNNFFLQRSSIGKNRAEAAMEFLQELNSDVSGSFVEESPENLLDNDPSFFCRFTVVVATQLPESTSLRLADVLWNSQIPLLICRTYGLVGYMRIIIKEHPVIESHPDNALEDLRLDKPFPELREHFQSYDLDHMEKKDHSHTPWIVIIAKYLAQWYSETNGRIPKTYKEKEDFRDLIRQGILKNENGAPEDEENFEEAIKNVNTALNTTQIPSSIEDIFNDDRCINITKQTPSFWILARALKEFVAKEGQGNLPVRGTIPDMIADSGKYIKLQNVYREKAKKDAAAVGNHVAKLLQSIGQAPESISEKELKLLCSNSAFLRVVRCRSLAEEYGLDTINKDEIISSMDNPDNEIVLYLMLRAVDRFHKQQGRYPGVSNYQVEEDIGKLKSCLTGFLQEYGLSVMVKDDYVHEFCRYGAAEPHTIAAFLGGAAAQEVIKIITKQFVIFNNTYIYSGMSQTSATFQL
# [1] = target: Nedd8 activating enzyme (NAE), heterodimer of APPBP1 and Uba3 (UniProt Q13564)
Molecule,effect on ubiquitination and degradation of CRL substrates (CRL substrates),effect on tumor growth (tumor growth),NAE inhibition (NAE),"K1/2 of the ATP-PPi exchange reaction catalysed by NAE, saturating ATP [1]"
NS(=O)(=O)OC[C@@H]1C[C@@H](n2ccc3c(N[C@H]4CCc5ccccc54)ncnc32)C[C@@H]1O [MLN4924],block ubiquitination and degradation of CRL substrates,inhibit tumor growth,potent inhibitor of NAE,–
"Nedd8 variant ND1 (71LQWFGG76), N-terminal GST fusion (from UniProt Q15843 1-76)",–,–,–,150 µM
"Nedd8 variant ND4 (71RLWFGG76), N-terminal GST fusion (from UniProt Q15843 1-76)",–,–,–,4.5 µM
"Nedd8 variant ND20 (71ILTFGG76), N-terminal GST fusion (from UniProt Q15843 1-76)",–,–,–,0.45 µM
"wt Nedd8 (71LALRGG76), N-terminal GST fusion (from UniProt Q15843 1-76) (natural protein)",–,–,–,1.3 µM

# Reference: paper PMC3822002 (Chembiochem : a European journal of chemical biology, 2013)
